The source of these data is the RNAGym collection of RNA variant scans (doi:10.1073/pnas.2313332121).

The chains are these.
B1: TPR t1 (parent)
chain: GACCAAUCUGCCCUCAGAGCUCGAGAACAUCUUCGGAUGCAGAGGAGGCAGGCUUCGGUGGCGCGAUAGCGCCAACGUCCUCAACCUCCAAUGCAUCCCACCACAUGAUGAUGCCUGAAGAGCCUUGGUUUUUUG

In the data set the parent is B1. Description: polymerase ribozyme fitness, log enrichment relative to wild type (log ratio); higher = more active; in vitro selection for triplet polymerase activity. The essentials:
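Each subunit of a heterodimeric triplet polymerase ribozyme was mutagenized into a library by PCR, transcribed, and subjected to one round of in vitro selection, run in triplicate. Libraries were annealed with a biotinylated primer, the partner subunit and triplets, incubated frozen at −7 °C, and extended constructs were gel-excised, captured on streptavidin beads and recovered by RT-PCR. Input and output libraries were sequenced on Illumina, keeping genotypes with ≥10 input reads and ≥1 read per output. Fitness is log base 2 of genotype enrichment divided by wild-type enrichment, from inverse-variance-weighted replicate averages.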
As to C73U C97A, the “polymerase ribozyme fitness (log ratio)” value was -3.58.
On to C72A A111C C124A G127A, for which the “polymerase ribozyme fitness (log ratio)” value came out at 0.235.
For G36A C72U U116C the value was -1.78.
To G52C C56G G71U C124U belongs -3.19.
To A43U C79U belongs -0.702; to C12U C85U U112C, 0.732.
A50U U109A: the “polymerase ribozyme fitness (log ratio)” value was -5.95.
For U78C U129A the value was -1.01; for A16U C53G, -1.82; for U9C G60U C82U U96C, 0.305.
For C12U C70G the value was -2.05; for C8A C53G C70U C97U U112A C124U, 0.47.
As for C3U A46C C56U A121U, the “polymerase ribozyme fitness (log ratio)” value stood at 1.54.
For G19A A41U U78C U132C, the “polymerase ribozyme fitness (log ratio)” value is -4.37.
With A100C C102G, the “polymerase ribozyme fitness (log ratio)” value was -4.98.
As for C72A A111U, the “polymerase ribozyme fitness (log ratio)” value was -2.42.
For C11G G36U A43U C62U G63A C115U U125A U132A the value was -5.64.
For U81A A121U the value was 1.04.
To G47C C56U C73U A105U belongs -4.05; to C12U A41U G71U A103U A118U, -6.98.
With C85G C86U U92A, the “polymerase ribozyme fitness (log ratio)” value was -5.3.
With C13U G113C, the “polymerase ribozyme fitness (log ratio)” value is -1.31.
As to C34A G45C U59A C98G, the “polymerase ribozyme fitness (log ratio)” value was -3.73.
U38G G45U G47A C73U: the “polymerase ribozyme fitness (log ratio)” value is -5.77.
To A46U G110C belongs -4.29.
As to A43U G45A C56A, the “polymerase ribozyme fitness (log ratio)” value is -1.86.
On to C4G G17U C53U C56A, for which the “polymerase ribozyme fitness (log ratio)” value is -3.68.
To A75G U96A A105G belongs -6.14.
For A18G C73A U87G the value was -3.89; for U7A A27U G61C G117U, -5.69; for G36A C86A C115A G120U, -2.65.
For the variant C64U G117C C123U U125A, the “polymerase ribozyme fitness (log ratio)” value is -6.02.
A43G C101U A108G: the “polymerase ribozyme fitness (log ratio)” value is -2.96.
With G51A U78C, the “polymerase ribozyme fitness (log ratio)” value was -2.47.
For C72G U87C G93A C104G C123G the value was -6.53; for C79U U130A, -1.2.
In the case of U55C G57A U106A G110U C123U, the “polymerase ribozyme fitness (log ratio)” value is -3.04.
To C4U G60A belongs -0.911; to G10U G42U C104A G120C, -4.1; to C22U C86G A100C A121U G135U, -4.77.
C70U U92C C97U C123U: the “polymerase ribozyme fitness (log ratio)” value is -0.926.
In the case of G61A U131G, the “polymerase ribozyme fitness (log ratio)” value was -0.0143.
A41G G127C: the “polymerase ribozyme fitness (log ratio)” value was -0.942.
On to C73U C86G, for which the “polymerase ribozyme fitness (log ratio)” value was -2.49.
To A18U C70G C79A belongs -7.76; to C28G A37U, -2.45.
For C20G G110C G120C the value was -6.34.
G61C C94A U131G: the “polymerase ribozyme fitness (log ratio)” value was -2.91.
In the case of A24G C86G, the “polymerase ribozyme fitness (log ratio)” value was -2.33.
Consider C8U C13G C53G C72G U87A U133C, for which the “polymerase ribozyme fitness (log ratio)” value is -2.29.
To C34A C70G C72G C82G belongs -6.51; to G35A C73A U78G A90G C115G A121C, -4.57; to C28G G52A C70U C80A G113C, -7.14.
For C8G A37C G48U C85A the value was 0.211; for C4U C49U U55G U96A, -2.11.
For U7G C11U G69C C88A the value was -1.91; for C4A G42A, -2.74.
Turning to C3A G57A U92C, the “polymerase ribozyme fitness (log ratio)” value was -5.31.
For C13G C62U G113A the value was -2.67; for G58C C123G G128A, 0.535.
In the case of C11G C22U G36A, the “polymerase ribozyme fitness (log ratio)” value was -4.08.
On to C8U C56U C70U C73A, for which the “polymerase ribozyme fitness (log ratio)” value is -2.03.
Turning to A50U C86U, the “polymerase ribozyme fitness (log ratio)” value was -1.27.
To C12G C62U C89A C94U belongs -2; to U59A C104A G110U C115A, -4.57.
For C11U C22U C40G the value was -4.75.
For A83C C102A the value was -2.03.
On to U59A C64U C85A G110U U133C, for which the “polymerase ribozyme fitness (log ratio)” value is -2.9.
For G113C G135U the value was -4.15.
Take G44U C89A: the “polymerase ribozyme fitness (log ratio)” value stood at 0.219.
For the variant A26U A37G, the “polymerase ribozyme fitness (log ratio)” value was -2.5.
To C73A C80G belongs -5.69.
To A50U C73U U87A belongs -0.904; to C56U G135U, -1.18; to C34U C64U G93A A105C C114U, -5.2.
A2U A50C C56U G57U C62U A91U C124G G127C G128C: the “polymerase ribozyme fitness (log ratio)” value was -4.5.
To C8A C72U A84C belongs 0.272.
For U14A C124A U130A the value was 0.939; for C82U C88A A100U U112C, 0.47.
As to A100C U106A, the “polymerase ribozyme fitness (log ratio)” value is -0.525.
To C28A G127C belongs -5.95.
Turning to G17C C73A U125A, the “polymerase ribozyme fitness (log ratio)” value is -5.15.
To G17U G120C belongs -1.09.
